What was measured:
[1] = biological target: Mus musculus calmodulin (mCaM), recombinant (Mus musculus, UniProt P0DP27 1-149); assay: crystal structure
[2] = biological target: Drosophila melanogaster calmodulin (dCaM), recombinant (Drosophila melanogaster, UniProt P62152 1-149); assay: ITC

binding result [1]	fold decrease in affinity against the wild type [2] [fold]	Binder
binds		AAALIQRWYRRYMARLEM [mPPEF2 IQ (aa 22-39)]
	236	MDENAIRAAIFEQKWYRRHQARREM (domain or fragment) [RDGC IQ (aa 1-25) I12E]

From publication PMC11962071 (Nature Communications, 2025)
